Where no end group is shown, it is not given here.
B1: Phage-918 (Peptide-87 library clone, SEQ ID NO: 1234) (peptide)
peptide: YCAGHLPEFMDKCL
modifications: cysteine pairing not given here; also: fused to phage pIII
notes: Tested as clonal phage supernatant; not shown: fused to the pIII filament protein of the bacteriophage
B2: Phage-927 (Peptide-87 library clone, SEQ ID NO: 1243) (peptide)
peptide: YCDGHAQEYRLKCL
modifications: cysteine pairing not given here; also: displayed fused to phage pIII protein, fusion end and linker not given here
notes: as for B1
B3: Phage-924 (Peptide-87 library clone, SEQ ID NO: 1240) (peptide)
peptide: YCEGHSLMYMWKCL
modifications: cysteine pairing not given here; also: displayed fused to phage pIII protein, fusion end and linker not given here
notes: as for B1
B4: Phage-920 (Peptide-87 library clone, SEQ ID NO: 1236) (peptide)
peptide: YCDGHDVEYMAKCL
modifications: cysteine pairing not given here; also: fused to phage pIII
notes: as for B1
B5: Phage-913 (peptide)
peptide: YCDGHIGLYLNKCL
notes: Peptide-87 library clone, tested as clonal phage supernatant with the peptide fused to the pIII filament of the bacteriophage
B6: Phage-906 (peptide)
peptide: YCEGHAPQYMNKCL
notes: as for B5
B7: Phage-911 (peptide)
peptide: YCEGHAPQYMTKCL
notes: as for B5
B8: Phage-907 (peptide)
peptide: YCDGHAPQWMAKCL
notes: as for B5
B9: Phage-917 (peptide)
peptide: YCDGHSPEYIGKCL
notes: as for B5
B10: Phage-921 (Peptide-87 library clone, SEQ ID NO: 1237) (peptide)
peptide: YCDGHSEVYMAKCL
modifications: cysteine pairing not given here; also: fused to phage pIII
notes: as for B1
B11: Phage-915 (peptide)
peptide: YCEGHLPQYMRPCL
notes: as for B5
B12: Phage-923 (Peptide-87 library clone, SEQ ID NO: 1239) (peptide)
peptide: YCEGHLAVYMEKCL
modifications: cysteine pairing not given here; also: displayed fused to phage pIII protein, fusion end and linker not given here
notes: as for B1
B13: Phage-910 (peptide)
peptide: YCEGHAQEYMNKCL
notes: as for B5
B14: Phage-922 (Peptide-87 library clone, SEQ ID NO: 1238) (peptide)
peptide: YCDGHSLLYLSKCL
modifications: cysteine pairing not given here; also: fused to phage pIII
notes: as for B1
B15: Phage-909 (peptide)
peptide: YCDGHAAEYMAKCV
notes: as for B5
B16: Phage-912 (peptide)
peptide: YCDGHSADYMAKCL
notes: as for B5
B17: Phage-916 (peptide)
peptide: YCEGHLSQYMSKCL
notes: as for B5
B18: Phage-929 (Peptide-87 library clone, SEQ ID NO: 1245) (peptide)
peptide: YCDGHGPQYIQKCL
modifications: cysteine pairing not given here; also: displayed fused to phage pIII protein, fusion end and linker not given here
notes: as for B1
B19: Phage-928 (Peptide-87 library clone, SEQ ID NO: 1244) (peptide)
peptide: YCDGHSAEYLLKCL
modifications: cysteine pairing not given here; also: displayed fused to phage pIII protein, fusion end and linker not given here
notes: as for B1
B20: Phage-932 (peptide)
peptide: YCEGHTAEHMQKCL
B21: Phage-925 (Peptide-87 library clone, SEQ ID NO: 1241) (peptide)
peptide: YCAGHAAEYMTKCL
modifications: cysteine pairing not given here; also: displayed fused to phage pIII protein, fusion end and linker not given here
notes: as for B1
B22: Phage-931 (peptide)
peptide: YCEGHSAQYMHKCL
B23: Phage-919 (Peptide-87 library clone, SEQ ID NO: 1235) (peptide)
peptide: YCDGHSREYMNKCL
modifications: cysteine pairing not given here; also: fused to phage pIII
notes: as for B1
B24: Phage-914 (peptide)
peptide: YCEGHLPMYMIKCL
notes: as for B5
B25: Phage-926 (Peptide-87 library clone, SEQ ID NO: 1242) (peptide)
peptide: YCDGHSVEYMEKCL
modifications: cysteine pairing not given here; also: displayed fused to phage pIII protein, fusion end and linker not given here
notes: as for B1
B26: Phage-908 (peptide)
peptide: YCDGHSREYMSKCL
notes: as for B5
B27: Phage-930 (Peptide-87 library clone, SEQ ID NO: 1246) (peptide)
peptide: YCEGHIAEYMQKCL
modifications: cysteine pairing not given here; also: displayed fused to phage pIII protein, fusion end and linker not given here
notes: as for B1

How the values were obtained:
[1] = target: T1, Anti-CD28 Fab (SEQ ID NOs: 696, 697); test: phage binding ELISA; biotinylated anti-CD28 Fab on neutravidin plate, clonal phage supernatant, anti-M13 HRP detection
T1 construct: In the phage ELISA the Fab was biotinylated and captured on neutravidin coated plates
T1 sequence (VH, as listed by the source, chain 1 of 2): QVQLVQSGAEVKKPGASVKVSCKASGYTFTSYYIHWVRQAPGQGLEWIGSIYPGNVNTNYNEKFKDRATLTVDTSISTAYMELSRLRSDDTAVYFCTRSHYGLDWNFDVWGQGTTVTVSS
T1 sequence (VL, as listed by the source, chain 2 of 2): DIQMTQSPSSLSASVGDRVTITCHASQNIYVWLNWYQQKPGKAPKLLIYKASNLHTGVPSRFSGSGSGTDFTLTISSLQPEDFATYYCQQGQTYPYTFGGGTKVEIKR
Method: (§1) After panning, phage infected bacteria were plated out and colonies picked into 96 well blocks. Clonal phage was then amplified and separated from bacterial cells via centrifugation.
(§2) Clonal phage were harvested as crude supematants and screened via standard ELISAs. […] Prior to the addition of clonal phage, wells were incubated with blocking buffer and CD28 antigen or blocking buffer alone. Without washing or aspirating, clonal phage supematants were then added to the wells and incubated for a short time. Wells were then washed followed by detection of bound phage using a horse radish conjugated anti-M13 antibody. Clonal phage of interest were then sent for sequence analysis.

[2] = target: T1, Anti-CD28 Fab (SEQ ID NOs: 696, 697); test: phage binding ELISA; Fab-coated wells pre-incubated with CD28 antigen as competitor, anti-M13 HRP detection;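 note: crude clonal phage supernatants from panned colonies added to wells after blocking buffer plus CD28 treatment, bound phage measured after a brief incubation and washing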
Method: as §1, §2

[3] = target: Anti-CD28 Fab (SEQ ID NOs: 696, 697); test: phage binding ELISA; biotinylated anti-CD28 Fab on neutravidin plate, clonal phage supernatant, anti-M13 HRP detection
Target sequence in this assay (VH, as listed by the source, chain 1 of 2): as the sequence (VH, as listed by the source, chain 1 of 2) above
Target sequence in this assay (VL, as listed by the source, chain 2 of 2): as the sequence (VL, as listed by the source, chain 2 of 2) above
Method: as §1, §2

[4] = target: Anti-CD28 Fab (SEQ ID NOs: 696, 697); test: phage binding ELISA on captured anti-CD28 Fab; competitor: CD28 antigen preincubated in the wells
Target sequence in this assay (VH, as listed by the source, chain 1 of 2): as the sequence (VH, as listed by the source, chain 1 of 2) above
Target sequence in this assay (VL, as listed by the source, chain 2 of 2): as the sequence (VL, as listed by the source, chain 2 of 2) above

[5] = target: T2, Anti-CD28 Fab (SEQ ID NOs: 696, 697); test: phage ELISA on captured anti-CD28 Fab; competitor: CD28 antigen pre-incubated on the Fab
T2 construct: In the phage ELISA the Fab was biotinylated and captured on neutravidin coated plates
T2 sequence (VH, as listed by the source, chain 1 of 2): as the sequence (VH, as listed by the source, chain 1 of 2) above
T2 sequence (VL, as listed by the source, chain 2 of 2): as the sequence (VL, as listed by the source, chain 2 of 2) above
Method: as §1, §2

[6] = target: T2, Anti-CD28 Fab (SEQ ID NOs: 696, 697); test: phage ELISA; clonal phage supernatant on biotinylated anti-CD28 Fab captured on neutravidin, anti-M13 HRP detection
Method: as §1, §2

Row | Binder | Anti-CD28 Fab signal (phage binding ELISA) [1] | Anti-CD28 Fab signal in the presence of CD28 (phage binding ELISA) [2] | Anti-CD28 Fab signal (phage binding ELISA) [3] | Anti-CD28 Fab signal in the presence of CD28 (phage binding ELISA) [4] | further results
1 | B1 | 1.66 | 0.06 | – | – | –
2 | B2 | 1.65 | 0.07 | – | – | –
3 | B3 | 1.65 | 0.08 | – | – | –
4 | B4 | 1.66 | 0.07 | – | – | –
5 | B5 | – | – | 1.66 | 0.06 | –
6 | B6 | – | – | 1.67 | 0.08 | –
7 | B7 | – | – | 1.67 | 0.08 | –
8 | B8 | – | – | 1.67 | 0.1 | –
9 | B9 | – | – | 1.66 | 0.07 | –
10 | B10 | 1.66 | 0.06 | – | – | –
11 | B11 | – | – | 1.66 | 0.08 | –
12 | B12 | 1.65 | 0.12 | – | – | –
13 | B13 | – | – | 1.67 | 0.06 | –
14 | B14 | 1.65 | 0.07 | – | – | –
15 | B15 | – | – | 1.67 | 0.07 | –
16 | B16 | – | – | 1.67 | 0.07 | –
17 | B17 | – | – | 1.66 | 0.07 | –
18 | B18 | 1.64 | 0.07 | – | – | –
19 | B19 | 1.65 | 0.07 | – | – | –
20 | B20 | – | – | – | – | Anti-CD28 Fab signal in the presence of CD28 (phage binding ELISA) [5]: 0.05; Anti-CD28 Fab signal (phage binding ELISA) [6]: 1.64
21 | B21 | 1.65 | 0.07 | – | – | –
22 | B22 | – | – | – | – | Anti-CD28 Fab signal in the presence of CD28 (phage binding ELISA) [5]: 0.06; Anti-CD28 Fab signal (phage binding ELISA) [6]: 1.64
23 | B23 | 1.66 | 0.06 | – | – | –
24 | B24 | – | – | 1.66 | 0.09 | –
25 | B25 | 1.65 | 0.09 | – | – | –
26 | B26 | – | – | 1.67 | 0.1 | –
27 | B27 | 1.64 | 0.13 | – | – | –

— patent publication US20260242478A1 (published 2026)
